Test results published in publication PMC7293033.
Where a chain is given by its changes, count along the chain named. Names and notes keep the numbering of the source.

Columns and labels:
Test in all cases: SPR
[1] = molecular target: His-FGF2, LMW FGF2 (residues 135-288, C211S/C229S), P09038; conditions: chain shown with the change; concentration series 0.031, 0.063, 0.13, 0.25, 0.50, 1.0, 2.0, 4.0, 8.0, 16 µM
[2] = molecular target: T1, His-FGF2 Mut (C211S/C229S/R262A/T263A/K271A), P09038; conditions: chain shown with the change; concentration series 0.25, 0.50, 1.0, 2.0, 4.0, 8.0, 16, 32, 64 µM
T1 chain: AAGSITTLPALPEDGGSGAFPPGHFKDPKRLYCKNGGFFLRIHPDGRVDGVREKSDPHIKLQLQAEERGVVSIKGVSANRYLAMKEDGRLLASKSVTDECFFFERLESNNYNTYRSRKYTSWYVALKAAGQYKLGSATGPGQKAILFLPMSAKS

[3] = molecular target: T2, His-API5 (apoptosis inhibitor 5, residues 1-504, isoform 2), wild type; conditions: chain shown with the change; concentration series 0.13, 0.25, 0.50, 1.0, 2.0, 4.0, 8.0, 16 µM
T2 chain: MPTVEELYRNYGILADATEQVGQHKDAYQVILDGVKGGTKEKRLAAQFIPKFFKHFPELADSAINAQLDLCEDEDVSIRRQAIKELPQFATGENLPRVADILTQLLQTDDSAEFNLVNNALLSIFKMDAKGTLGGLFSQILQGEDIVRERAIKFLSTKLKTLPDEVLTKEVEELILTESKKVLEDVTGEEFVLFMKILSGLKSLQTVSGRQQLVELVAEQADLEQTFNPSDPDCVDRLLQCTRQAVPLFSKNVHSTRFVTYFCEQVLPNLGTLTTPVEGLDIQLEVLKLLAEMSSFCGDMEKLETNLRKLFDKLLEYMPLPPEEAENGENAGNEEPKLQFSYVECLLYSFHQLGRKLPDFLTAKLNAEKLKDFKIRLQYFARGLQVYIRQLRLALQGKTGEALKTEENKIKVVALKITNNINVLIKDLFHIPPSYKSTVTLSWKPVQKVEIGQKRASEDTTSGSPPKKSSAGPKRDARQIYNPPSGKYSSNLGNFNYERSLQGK

B1: His-API5 (apoptosis inhibitor 5, residues 1-504, isoform 2), wild type E184A; D185A; E190A (protein)
chain: T2 chain with E184A, D185A, E190A
- koff [1]: 0.0094 s⁻¹

B2: m1; m2 API5: E184A; D185A; E190A; FGF2: R262A; T263A; K271A (protein)
chain: T2 chain with E184A, D185A, E190A
- koff [2]: 0.00328 s⁻¹
- other: t1/2 (half-life of complex) [2]: 3.52 min

B3: His-FGF2, LMW FGF2 (residues 135-288, C211S/C229S), P09038 R262A; T263A; K271A (protein)
chain: T1 chain
- koff [3]: 0.00251 s⁻¹
